Results published in the supplement of paper PMC10126150.
± gives the standard deviation of the averaged measurements.

Test system: ATP
Assay: switch fluorescence ratio, 500 uM ATP over buffer (Cy3 cluster intensity, sum of 5 cycles each) (fold (ratio)); higher = stronger signal-on switching upon ATP binding; sequences stand for … in TCGTCGGCAGCGTCAGATGTGTATAAGAGACAGTTTTTTTTTTTTTTTTTTTTTTTTT…TC
Conditions: aptamer strand: ATP DNA aptamer (quencher-CACCTGGGGGAGTATTGCGGAGGAAGG + anchor), 100 nM annealed; ATP concentration: 500 uM
Summary of the method: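 Clusters with intensities outside 100-1000 RFU were excluded. The remaining Cy3-labelled switching-strand clusters on a modified Illumina MiSeq flow-cell had been annealed to 100 nM quencher-labelled ATP aptamer and imaged in selection buffer, then after 15 min with 500 uM ATP at 22 °C, for five cycles separated by NaOH stripping and re-annealing. The fluorescence ratio, averaged per switch-domain sequence, is each cluster's summed target-cycle Cy3 intensity over its summed buffer-cycle Cy3 intensity.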
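Also: ATP exposure 15 min at 22 °C before imaging.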

Sequence | switch fluorescence ratio
TTCGTGACCC | 1.019 ± 0.0043
GCTGTAGTGG | 0.998 ± 0.051
TTGATGGGGT | 1.03 ± 0.1
GGGGCACCTC | 1.04 ± 0.015
AAATCGATGT | 1 ± 0.02
GCGTAGAGCG | 0.9878 ± 0.0012
GGGAAGGTTT | 1.01 ± 0.012
GATCGATTTG | 0.998 ± 0.023
CAGGGGCTTT | 1.04 ± 0.0067
GTGGTTGGGA | 0.992 ± 0.029
AACTCAGCCG | 1.03 ± 0.013
TTTACGTGTT | 0.991 ± 0.012
TCCATTGAAC | 1.017 ± 0.0026
ATGTTTTAGA | 0.95 ± 0.015
TATATGTATC | 0.9678 ± 0.0011
GGGTGGAATT | 1.005 ± 0.0092
TCATACGTCT | 0.986 ± 0.09
GGGAATTTAA | 1.02 ± 0.019
TAGGATTTTT | 1.026 ± 0.0081
TAGTGTCTAG | 0.97 ± 0.07
AATGGTGTAG | 1.003 ± 0.0013
TTCTAGTGGG | 1 ± 0.033
TAGTTAGGAG | 0.9945 ± 0.0081
CTTGGAGTTA | 0.997 ± 0.025
AAGGCATTAT | 1.005 ± 0.0081

Sequence | switch fluorescence ratio
CTTGGAATGT | 1.01 ± 0.029
GTGAAACGGG | 0.998 ± 0.07
GCTAGCAATG | 0.982 ± 0.037
GGAATGTACG | 1 ± 0.041
TACGAGGTGT | 1.06 ± 0.027
AATAATCGGT | 0.975 ± 0.035
AAGGGATGCG | 1.09 ± 0.097
GATCGGGGCA | 0.97679 ± 0.00094
CGTTGACGCG | 1.02 ± 0.016
CATGTAAGGG | 1.003 ± 0.0053
TTTTTTGTTA | 1 ± 0.024
TCTTTTAAAG | 0.988 ± 0.035
CACGCGTATG | 1.03 ± 0.011
ATAGGATTTA | 0.989 ± 0.013
TTTCAGGGAG | 1.04 ± 0.056
GGGGAGCCGT | 1.03 ± 0.086
CTCATAGACA | 1.03 ± 0.08
CGGTTATAGG | 0.967 ± 0.012
ATGGGACAGG | 0.999 ± 0.033
AACCGTGGCG | 1.07 ± 0.041
CTAATTTTTG | 1 ± 0.024
CAAGATTCCA | 1.016 ± 0.0077
TTATCTTGTT | 0.988 ± 0.03
TTTCTGGTT | 1.01 ± 0.038
ATCATTGAGA | 0.9972 ± 0.0043

Sequence | switch fluorescence ratio
TGCATTTGGG | 0.9893 ± 0.0031
GGGGGCGGAT | 0.992 ± 0.024
GCCTTGGGAA | 1.02 ± 0.028
GGTGTTTCGG | 0.966 ± 0.014
TTGAGGGGGT | 1.05 ± 0.16
TCACTTAGAA | 1.04 ± 0.016
GGCTAGTGAC | 1 ± 0.03
GGGACACGA | 0.988 ± 0.024
GGCTTAATGA | 0.971 ± 0.029
TATCCACATT | 1.02 ± 0.019
CCATTTTCAT | 0.99 ± 0.041
AGCAGTTCGG | 1 ± 0.036
TTACACACAC | 1.53 ± 0.073
TGGTGGGGGC | 1 ± 0.052
CAAGATATAT | 1 ± 0.016
TTGGGAGATG | 1.1 ± 0.13
AGTCAGTTTT | 1.024 ± 0.0078
CAGCGTCGT | 1.02 ± 0.025
GCTGTTCCCG | 1.04 ± 0.071
GGTGTTTTCG | 0.998 ± 0.03
CTGTACGGAT | 1.95 ± 1.7
TTTGTGAGTA | 1 ± 0.023
GACCACGGTC | 1.02 ± 0.041
AATCAATTAA | 1.001 ± 0.0016
TTGTGGTTCC | 1.08 ± 0.14

Sequence | switch fluorescence ratio
CTTAGATCTG | 1 ± 0.027
TTTAGGCTTT | 1 ± 0.012
ATGTGTGTAT | 1.12 ± 0.2
CGGGAGGGAC | 0.994 ± 0.057
ATCATGACTG | 1.015 ± 0.005
AACGATAGCA | 1.08 ± 0.016
TTTATAGCGG | 0.996 ± 0.015
ACACTGGGCA | 1.022 ± 0.0053
ATGGGGAGAA | 1.01 ± 0.029
TGGTCTTCAT | 1 ± 0.022
TCCCACTGCT | 1.03 ± 0.034
TGGGGACTAT | 1.02 ± 0.012
CGGAGTCGGG | 1.04 ± 0.052
AAGTGCTTTT | 1.01 ± 0.052
TTTTGGAAAA | 1.02 ± 0.017
GGAGAATTAT | 0.991 ± 0.024
GGTAACGGGG | 1.06 ± 0.065
TTGCTAAATG | 1 ± 0.013
TTTTATCAA | 1.07 ± 0.12
AAGGTAGAGC | 1.03 ± 0.034
CAGTTAGCAT | 1.101 ± 0.0097
TCGGCCATCG | 1 ± 0.016
GATTGAGCGT | 0.996 ± 0.017
CGGTCAATTG | 1 ± 0.036
AGGGTAGATC | 1.03 ± 0.018

Sequence | switch fluorescence ratio
GATGAGGGTG | 1.06 ± 0.015
AGTAATATTT | 1.03 ± 0.0061
TGGATTTTCA | 0.989 ± 0.03
TGATAGAGCC | 1.01 ± 0.023
GGGAAGAGAG | 0.985 ± 0.021
GGGGGGTCTT | 1.01 ± 0.025
GAGGAAGCGA | 1.18 ± 0.059
TGTGGGGAAG | 0.989 ± 0.016
AAAGGGAAGT | 0.983 ± 0.048
TCCCATCTGT | 0.984 ± 0.031
GATCAAGGGG | 0.9939 ± 0.0078
GGTGACACTT | 0.996 ± 0.033
CTTGAATCGT | 0.987 ± 0.013
TTAACGATGA | 1.01 ± 0.044
TTCGTTGGGT | 0.986 ± 0.016
CAGGTTAATT | 1.02 ± 0.044
GCAGCTGGTA | 1.05 ± 0.024
TTTTACCACC | 1.22 ± 0.049
TTATAGGCGG | 0.981 ± 0.016
GCGAAGGTCA | 1.01 ± 0.012
AGGAAGGCGG | 1.02 ± 0.035
TATTTTGGTC | 1.025 ± 0.0078
TAAAAGTTGG | 0.985 ± 0.029
CAAGGGGGGG | 0.99 ± 0.034
TTGGGGTAAC | 1.009 ± 0.01

Sequence | switch fluorescence ratio
ACGGCCTGTT | 1.02 ± 0.017
TTTTCTTAGG | 1.08 ± 0.14
ATTGGTGACG | 1.02 ± 0.047
GATACTGCGC | 1.16 ± 0.087
GGCTTTGCCC | 0.9669 ± 0.0028
GGGAAAAAGA | 1.03 ± 0.012
GGGGAGGGCG | 0.967 ± 0.034
CGAGGGGTAG | 0.996 ± 0.026
TTGGACTAAG | 0.99 ± 0.044
TTTTATGTTC | 1.01 ± 0.018
TCCATGTTTT | 1.14 ± 0.22
GGGCACAGAA | 0.9751 ± 0.0022
TTTTTTGAAT | 0.995 ± 0.027
GGGGATTATA | 1.01 ± 0.015
TAAGTCCACC | 1.012 ± 0.01
CATCAGGTTT | 0.991 ± 0.0015
GGAGGATTTA | 0.984 ± 0.042
ACTTATGGCT | 1.05 ± 0.022
TTTCAAGCAT | 1.02 ± 0.017
TGGCGTTTGG | 1 ± 0.015
GATTACTACC | 1.21 ± 0.04
CTACGAAGTA | 1.01 ± 0.015
AAAAAGTGGT | 0.9827 ± 0.0041
TGCTTGGAGG | 0.996 ± 0.014
GCGATTAAGG | 0.9904 ± 0.0013

Sequence | switch fluorescence ratio
TGGTTATATT | 1.02 ± 0.026
GGCGCAACAG | 1.44 ± 0.14
GTTGTTGTCG | 0.974 ± 0.1
CGACCTTGGC | 1.02 ± 0.1
AATGTGTACT | 1.03 ± 0.032
AACGAAGATT | 1.01 ± 0.019
AATCGGGGTC | 1.01 ± 0.015
CTTAGATGGT | 0.975 ± 0.015
CCAAGCACTT | 1.45 ± 0.14
AAGGGATTGG | 0.981 ± 0.031
TCAGACAGAT | 1.02 ± 0.035
ATAGAATAGG | 0.9867 ± 0.0065
CAATTAGGGA | 0.985 ± 0.017
TATATATAGA | 1 ± 0.041
AGCGTTAGTG | 1.06 ± 0.013
TACGTTTTTT | 1.05 ± 0.07
TGTTATTTGA | 0.996 ± 0.0056
GGATTAGGGT | 0.975 ± 0.019
ATTTAGGGCA | 1.02 ± 0.051
CTAGACCAGG | 1.01 ± 0.014
TTGTTTATAG | 0.985 ± 0.03
TTGGTTGGGA | 1 ± 0.042
CATGGGGGTT | 0.991 ± 0.025
CGTTCAGCT | 1.01 ± 0.035
GGGGGAACCA | 0.9993 ± 0.0072

Sequence | switch fluorescence ratio
TAAATCCTA | 1.02 ± 0.022
AACGGACGGC | 1.48 ± 0.098
GCTTGGCTGT | 0.999 ± 0.017
ATCATTTTTG | 1 ± 0.025
CATCGGTAGA | 1.02 ± 0.017
AGTTCTAGGT | 0.986 ± 0.018
GCCTAAATGC | 1.44 ± 0.28
GATTGTATGG | 1.02 ± 0.025
TATTCCGGCC | 1.05 ± 0.058
TGATGCTTTG | 0.998 ± 0.051
TTTGGAGTGT | 1.08 ± 0.12
CTGTTGGGTT | 0.997 ± 0.016
ACGGTGGTCG | 0.913 ± 0.033
AATTGTGAGT | 0.985 ± 0.024
TTGGATGAGC | 1.03 ± 0.07
GCTCCCTTTC | 1.84 ± 0.08
AAGCCAGATG | 1.076 ± 0.0092
AAGGGGAGTG | 1.02 ± 0.11
AGCTTCTTAT | 1.03 ± 0.028
ATGTTTTGCT | 0.965 ± 0.029
TCAGGGGCAG | 1.06 ± 0.081
AACGAGACCA | 1.07 ± 0.052
TCACATTTTT | 0.99 ± 0.076
AACAATTATA | 1.011 ± 0.0078
GTGATTAGGG | 0.968 ± 0.022
